Test results as given in publication PMC10776498.

B1: GSDMD (gasdermin-D): S338A (protein)
parent chain: MGSAFERVVRRVVQELDHGGEFIPVTSLQSSTGFQPYCLVVRKPSSSWFWKPRYKCVNLSIKDILEPDAAEPDVQRGRSFHFYDAMDGQIQGSVELAAPGQAKIAGGAAVSDSSSTSMNVYSLSVDPNTWQTLLHERHLRQPEHKVLQQLRSRGDNVYVVTEVLQTQKEVEVTRTHKREGSGRFSLPGATCLQGEGQGHLSQKKTVTIPSGSTLAFRVAQLVIDSDLDVLLFPDKKQRTFQPPATGHKRSTSEGAWPQLPSGLSMMRCLHNFLTDGVPAEGAFTEDFQGLRAEVETISKELELLDRELCQLLLEGLEGVLRDQLALRALEEALEQGQSLGPVEPLDGPAGAVLECLVLSSGMLVPELAIPVVYLLGALTMLSETQHKLLAEALESQTLLGPLELVGSLLEQSAPWQERSTMSLPPGLLGNSWGEGAPAWVLLDECGLELGEDTPHVCWEPQAQGRMCALYASLALLSGLSQEPH
B2: GSDMD (gasdermin-D): TMG (protein)
parent chain: MGSAFERVVRRVVQELDHGGEFIPVTSLQSSTGFQPYCLVVRKPSSSWFWKPRYKCVNLSIKDILEPDAAEPDVQRGRSFHFYDAMDGQIQGSVELAAPGQAKIAGGAAVSDSSSTSMNVYSLSVDPNTWQTLLHERHLRQPEHKVLQQLRSRGDNVYVVTEVLQTQKEVEVTRTHKREGSGRFSLPGATCLQGEGQGHLSQKKTVTIPSGSTLAFRVAQLVIDSDLDVLLFPDKKQRTFQPPATGHKRSTSEGAWPQLPSGLSMMRCLHNFLTDGVPAEGAFTEDFQGLRAEVETISKELELLDRELCQLLLEGLEGVLRDQLALRALEEALEQGQSLGPVEPLDGPAGAVLECLVLSSGMLVPELAIPVVYLLGALTMLSETQHKLLAEALESQTLLGPLELVGSLLEQSAPWQERSTMSLPPGLLGNSWGEGAPAWVLLDECGLELGEDTPHVCWEPQAQGRMCALYASLALLSGLSQEPH

Tests used:
[1] = western blot of GSDMD-N, HEK293T input; conditions: control: GSDMD-WT
[2] = western blot of GSDMD-N, HUVECs; conditions: glycan gained; control: HUVECs, LPS without TMG

Protein	other: proteolytic processing ([1]; glycan lost, LPS + TMG)	other: proteolytic processing [2]	other: proteolytic processing ([1]; glycan gained, LPS without TMG)
B1	increases	–	–
B2	–	decreases	decreases
